From US20210261650A1 (published 2021)

Columns and labels:
[1] = molecular target: SARS-CoV-2 Spike (S) protein, strain BetaCoV/Wuhan-Hu-1/2019, expressed on ExpiCHO cells (UniProt P0DTC2 14-1273); assay: flow
[2] = molecular target: SARS-CoV-1 S protein expressed on ExpiCHO cells (SARS-CoV-1, UniProt P59594 14-1255); assay: flow
[3] = molecular target: SARS-CoV-1 RBD (Sino Biological) (SARS-CoV-1, UniProt P59594 306-527); assay: BLI

B1: SARS-CoV-2 S306 mAb (antibody, V domains shown)
VH: QVQLVQSGAEVKKPGASVKVSCKASTYTFTSFGISWVRQAPGQGLEWMGWITTYSGDTNYAQKFQGRVTMTTDTSTNTAYMELRSLRSDDTAVYYCASDYFDSSGYYHSFDYWGQGTLVTVSS
VL: EIVLTQSPDTLSLSPGERATLSCRASQSVSSYLAWYQQRPGQAPRLLIYDASKRATGIPARFSGSGSGTDFTLTISSLEPEDFAVYYCQQRSNWPPGCSFGQGTKVEIK
Question: What does the source list for B1?
Answer: EC50 [1]: 1.42 ng/mL; EC50 [2]: 20.8 ng/mL

B2: SARS-CoV-2 S310 mAb (antibody, V domains shown)
VH: QVQLVQSGAELKKPGSSVKVSCKASGGTFNSYSFNWVRQAPGQGLEWLGGIIPVLGTSNYAQKFQGRVAVTADEFTTTAYMELSSLRSEDTAVYYCATRTYDSSGYRPYYYGLDVWGQGTPVTVSS
VL: QSALTQPASVSGSPGQSITISCTGTSSDVGSYNLVSWYQQRPGKAPELMIYEVTKRPSGLSNRFSGSKSGNTASLTISGLQAEDEADYYCCSYAGSDTVIFGGGTKVTVL
Question: With B2 as the binder, how does the EC50 [2] read?
Answer: 254 ng/mL

B3: SARS-CoV-2 S303 mAb (antibody, V domains shown)
VH: EVQLVESGGGLVKPGGSLRLSCAASGFTFLTYSMNWVRQTPGKRLQWVSAISGSGGATYYADSVKGRFTISRDNSKNTLYLQMNTVTADDTAIYFCARERDDIFPMGLNAFDIWGQGAMVIVSS
VL: DIQMTQSPSTLSASVGDRVTITCRASQSISNWLAWYQQKPGKAPKLLIYKASSLESGVPSRFSGSGSGTEFTLTISSLQPDDSATYYCQQYDTYSWTFGQGTKVEIK
Question: What does the source list for B3?
Answer: Kd [3]: 0.869 nM; EC50 [2]: 1.06 ng/mL

B4: SARS-CoV-2 S315 mAb (antibody, V domains shown)
VH: EVQLVESGGGLVQPGGSLRLSCAASGFTFSNYWMTWVRQAPGKGLEWVANIKQDGSEKYYVDSVKGRFTISRDNAKNSLYLQMNSLRAEDTAVYYCARDLWWNDQAHYYGMDVWGQGTTVTVSS
VL: SYELTQPPSVSVSPGQTARITCSGDAFPNQYAYWYQQKPGQAPVMLIYKDSERPSGIPERFFGSSSGTTVTLTIRGVQAEDEADYYCQSADSSGTVFGGGTKLTVL
Question: With B4 as the binder, how does the EC50 [2] read?
Answer: 7.59 ng/mL

B5: SARS-CoV-2 S304 mAb (antibody, V domains shown)
VH: EVQLVESGGGLVQPGGSLRLSCAASGFTFSSYDMHWVRQTTGKGLEWVSTIGTAGDTYYPDSVKGRFTISREDAKNSLYLQMNSLRAGDTAVYYCARGDSSGYYYYFDYWGQGTLLTVSS
VL: DIQMTQSPSSLSAAVGDRVTITCRASQSIGSYLNWYQQKPGKAPKLLIYAASSLQSGVPSRFSGSGSGTDFTLTISSLQPEDFAIYYCQQSYVSPTYTFGPGTKVDIK
Question: How did the EC50 [2] turn out when B5 was run?
Answer: 11.4 ng/mL
